Measurements as given in US20260193356A1.

Assays:
[1] = molecular target: dog (Canis lupus) PDL1 (dPDL1) expressed on CHO-S cells (CHO-S-dPDL1) (dog (Canis lupus)); assay: flow cytometry on CHO-S-dPDL1 cells; antibody 1 µg/mL
[2] = molecular target: monkey (Macaca fascicularis) PDL1 (fasPDL1) expressed on CHO-S cells (CHO-S-fasPDL1) (monkey (Macaca fascicularis)); assay: flow cytometry on CHO-S-fasPDL1 cells; antibody 0.1 µg/mL
[3] = molecular target: human PDL1 (hPDL1) expressed on CHO-S cells (CHO-S-hPDL1) (human) (UniProt Q9NZQ7); assay: flow cytometry on CHO-S-hPDL1 cells; antibody 1 µg/mL
[4] = molecular target: mouse (Mus musculu) PDL1 (mPDL1) expressed on CHO-S cells (CHO-S-mPDL1) (mouse) (UniProt Q9EP73); assay: flow cytometry on CHO-S-mPDL1 cells; antibody 0.1 µg/mL
[5] = molecular target: monkey (Macaca fascicularis) PDL1 (fasPDL1) expressed on CHO-S cells (CHO-S-fasPDL1) (monkey (Macaca fascicularis)); assay: flow cytometry on CHO-S-fasPDL1 cells; antibody 1 µg/mL
[6] = molecular target: human PDL1 (hPDL1) expressed on CHO-S cells (CHO-S-hPDL1) (human) (UniProt Q9NZQ7); assay: flow cytometry on CHO-S-hPDL1 cells; antibody 0.1 µg/mL
[7] = molecular target: mouse (Mus musculu) PDL1 (mPDL1) expressed on CHO-S cells (CHO-S-mPDL1) (mouse) (UniProt Q9EP73); assay: flow cytometry on CHO-S-mPDL1 cells; antibody 1 µg/mL
[8] = molecular target: dog (Canis lupus) PDL1 (dPDL1) expressed on CHO-S cells (CHO-S-dPDL1) (dog (Canis lupus)); assay: flow cytometry on CHO-S-dPDL1 cells; antibody 0.1 µg/mL
[9] = molecular target: mouse (Mus musculu) PDL1 (mPDL1) expressed on CHO-S cells (CHO-S-mPDL1) (mouse) (UniProt Q9EP73); assay: flow cytometry on CHO-S-mPDL1 cells, secondary antibody only; 0.1 µg/mL
[10] = molecular target: human PDL1 (hPDL1) expressed on CHO-S cells (CHO-S-hPDL1) (human) (UniProt Q9NZQ7); assay: flow cytometry on CHO-S-hPDL1 cells, secondary antibody only; 1 µg/mL
[11] = molecular target: mouse (Mus musculu) PDL1 (mPDL1) expressed on CHO-S cells (CHO-S-mPDL1) (mouse) (UniProt Q9EP73); assay: flow cytometry on CHO-S-mPDL1 cells, secondary antibody only; 1 µg/mL
[12] = molecular target: dog (Canis lupus) PDL1 (dPDL1) expressed on CHO-S cells (CHO-S-dPDL1) (dog (Canis lupus)); assay: flow cytometry on CHO-S-dPDL1 cells, secondary antibody only; 0.1 µg/mL
[13] = molecular target: monkey (Macaca fascicularis) PDL1 (fasPDL1) expressed on CHO-S cells (CHO-S-fasPDL1) (monkey (Macaca fascicularis)); assay: flow cytometry on CHO-S-fasPDL1 cells, secondary antibody only; 0.1 µg/mL
[14] = molecular target: human PDL1 (hPDL1) expressed on CHO-S cells (CHO-S-hPDL1) (human) (UniProt Q9NZQ7); assay: flow cytometry on CHO-S-hPDL1 cells, secondary antibody only; 0.1 µg/mL
[15] = molecular target: monkey (Macaca fascicularis) PDL1 (fasPDL1) expressed on CHO-S cells (CHO-S-fasPDL1) (monkey (Macaca fascicularis)); assay: flow cytometry on CHO-S-fasPDL1 cells, secondary antibody only; 1 µg/mL
[16] = molecular target: dog (Canis lupus) PDL1 (dPDL1) expressed on CHO-S cells (CHO-S-dPDL1) (dog (Canis lupus)); assay: flow cytometry on CHO-S-dPDL1 cells, secondary antibody only; 1 µg/mL

human PDL1 (hPDL1) expressed on CHO-S cells (CHO-S-hPDL1) (human), sequence (Q9NZQ7 19-290 limits assumed): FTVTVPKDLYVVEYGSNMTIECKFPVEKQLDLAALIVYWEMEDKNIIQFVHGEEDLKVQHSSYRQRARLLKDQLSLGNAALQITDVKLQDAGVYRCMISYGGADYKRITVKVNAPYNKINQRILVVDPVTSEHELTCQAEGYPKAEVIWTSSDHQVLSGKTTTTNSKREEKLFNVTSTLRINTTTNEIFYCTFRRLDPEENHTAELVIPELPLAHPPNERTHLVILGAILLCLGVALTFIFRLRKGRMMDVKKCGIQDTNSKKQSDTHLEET
dog (Canis lupus) PDL1 (dPDL1) expressed on CHO-S cells (CHO-S-dPDL1) (dog (Canis lupus)), sequence (chain, as listed by the source limits assumed, form in doubt): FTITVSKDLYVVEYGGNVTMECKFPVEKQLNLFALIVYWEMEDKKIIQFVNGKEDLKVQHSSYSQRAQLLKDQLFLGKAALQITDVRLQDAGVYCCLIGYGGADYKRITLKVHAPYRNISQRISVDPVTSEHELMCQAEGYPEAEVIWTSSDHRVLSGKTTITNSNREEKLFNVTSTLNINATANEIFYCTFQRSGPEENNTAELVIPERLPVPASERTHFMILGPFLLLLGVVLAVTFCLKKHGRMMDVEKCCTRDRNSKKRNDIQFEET
mouse (Mus musculu) PDL1 (mPDL1) expressed on CHO-S cells (CHO-S-mPDL1) (mouse), sequence (Q9EP73 19-290 limits assumed): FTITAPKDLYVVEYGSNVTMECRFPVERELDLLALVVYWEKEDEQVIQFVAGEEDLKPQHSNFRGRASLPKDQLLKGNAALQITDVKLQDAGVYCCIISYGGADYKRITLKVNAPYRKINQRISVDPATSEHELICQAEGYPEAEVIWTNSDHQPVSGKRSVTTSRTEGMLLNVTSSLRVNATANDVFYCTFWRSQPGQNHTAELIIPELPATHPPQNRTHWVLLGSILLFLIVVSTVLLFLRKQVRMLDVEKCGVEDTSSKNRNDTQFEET
monkey (Macaca fascicularis) PDL1 (fasPDL1) expressed on CHO-S cells (CHO-S-fasPDL1) (monkey (Macaca fascicularis)), sequence (Q9NZQ7 other isoform, or with tags, fused parts or gaps limits assumed): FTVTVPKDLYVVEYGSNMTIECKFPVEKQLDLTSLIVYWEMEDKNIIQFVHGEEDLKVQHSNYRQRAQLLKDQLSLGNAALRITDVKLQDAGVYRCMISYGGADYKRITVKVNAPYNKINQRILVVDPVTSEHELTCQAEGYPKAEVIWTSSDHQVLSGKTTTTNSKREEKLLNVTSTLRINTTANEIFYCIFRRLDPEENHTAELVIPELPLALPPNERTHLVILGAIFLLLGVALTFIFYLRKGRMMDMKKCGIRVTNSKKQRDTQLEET

Row | Percentage of Positive Cells (%) [1] [%] | Percentage of Positive Cells (%) [2] [%] | Percentage of Positive Cells (%) [3] [%] | Percentage of Positive Cells (%) [4] [%] | Percentage of Positive Cells (%) [5] [%] | Percentage of Positive Cells (%) [6] [%] | Percentage of Positive Cells (%) [7] [%] | Percentage of Positive Cells (%) [8] [%] | Percentage of Positive Cells (%) [9] [%] | Percentage of Positive Cells (%) [10] [%] | Percentage of Positive Cells (%) [11] [%] | Percentage of Positive Cells (%) [12] [%] | Percentage of Positive Cells (%) [13] [%] | Percentage of Positive Cells (%) [14] [%] | Percentage of Positive Cells (%) [15] [%] | Percentage of Positive Cells (%) [16] [%] | Substance
1 | 4.28 | 1.87 | 3.05 | 2.26 | 2.53 | 2.01 | 3.52 | 14.2 |  |  |  |  |  |  |  |  | ISO (isotype control, antibody with the same IgG1 subtype but targeting an unrelated target)
2 |  |  |  |  |  |  |  |  | 1.04 | 1.13 | 2.31 | 1.68 | 1.38 | 1.48 | 2.34 | 1.76 | secondary antibody anti-hIgG-Fc-Alex Flour 647 (RL1-H) (Jackson ImmunoResearch Laboratories, Inc., 109-606-170)
